{
  "source": "patent US20190119715",
  "proteins": {"B1": {"name": "CFP-H38-dh3 (CFP-H37 with R64G, C280Q) (protein)", "chain": "MTSNRADTRVIVVGGGGTIGSSTALHLVRSGYAPANITVLDTFEIPSAQSAGHDLNKIMGIDHGNKVNLQMSLEARQMWKEDELFQPFFHNTGRMDCEHTPKGIEKLKKLYQKLHDAGAGLEKTHAWLDNEDEILSKMPLLQRDQIQGWKAIWSQDGGWLAAAKAINAIGQFLKERGVKFGFGGAGSFKQPLFDDEGTTCIGVETADGTKYYADKVVLAAGAWSPTLVDLEDQCCSKAWVYAHIQLTPEEAAEYKGVPVVYNGEFGFFFEPDEFGVIKVQDEFPGFSRFKEHQPYGAPSPKRISVPRSHAKHPTDTYPDASEVSIKKAIATFLPRFQDKELFNRALCWCTDTADSTLLMCEHPKWKNFILATGDSGHSFKILPNVGKYVVELIEGRLPEEMAYQWRWRPGGDALKSRRAAPPKDLADMPGWKHDPKL"}, "B2": {"name": "CFP-H38-dh2 (CFP-H37 with R64G, F269L) (protein)", "chain": "B1 chain with F269L, Q280C"}, "B3": {"name": "CFP-H40-dh1 (CFP-H37 with R64G, H99S, L110Y, F269M) (protein)", "chain": "B1 chain with H99S, L110Y, F269M, Q280C"}, "B4": {"name": "CFP-H40-dh4 (CFP-H37 with R64G, H99S, L110Y, F269M, C280Q) (protein)", "chain": "B1 chain with H99S, L110Y, F269M"}, "B5": {"name": "CFP-H38-dh1 (CFP-H37 with R64G, F269M) (protein)", "chain": "B1 chain with F269M, Q280C"}, "B6": {"name": "CFP-H40-dh2 (CFP-H37 with R64G, H99S, L110Y, F269L) (protein)", "chain": "B1 chain with H99S, L110Y, F269L, Q280C"}, "B7": {"name": "CFP-H40-dh3 (CFP-H37 with R64G, H99S, L110Y, C280Q) (protein)", "chain": "B1 chain with H99S, L110Y"}, "B8": {"name": "CFP-H40 (CFP-T7-H37-R64G/L110Y/H99S), modified amadoriase derived from Coniochaeta sp. (protein)", "chain": "B1 chain with H99S, L110Y, Q280C"}, "B9": {"name": "CFP-H38 (CFP-T7-H37-R64G), modified amadoriase derived from Coniochaeta sp. (protein)", "chain": "B1 chain with Q280C"}},
  "note": "Positions count from the first letter of the chain named. In names and notes the source's numbering stands.",
  "data": [
    {"target": "hemoglobin A1c (HbA1c)", "sequence (chain, as listed by the source, chain 1 of 2)": "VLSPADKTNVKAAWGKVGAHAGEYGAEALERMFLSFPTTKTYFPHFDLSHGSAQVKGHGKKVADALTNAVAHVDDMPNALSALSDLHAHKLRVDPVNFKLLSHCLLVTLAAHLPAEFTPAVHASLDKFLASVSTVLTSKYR", "sequence (chain, as listed by the source, chain 2 of 2)": "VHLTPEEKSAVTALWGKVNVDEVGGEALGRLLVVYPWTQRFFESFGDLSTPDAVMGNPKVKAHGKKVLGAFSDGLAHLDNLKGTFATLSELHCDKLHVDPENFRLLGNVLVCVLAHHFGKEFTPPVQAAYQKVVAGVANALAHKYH", "values": [
      {"protein": "B1", "current response on a screen-printed carbon electrode at 83, 166, 249 and 332 µg/ml HbA1c": "HbA1c was quantified with high accuracy using CFP-H38-dh3", "dehydrogenase activity on HbA1c (absorbance at 433 nm, WST-3)": "a significant increase was observed in the absorbance, compared with the control. That is, it was confirmed that CFP-H38-dh3 exhibited dehydrogenase activity on HbA1c"}
    ]},
    {"target": "T1, α-fructosyl hexapeptide (α-fructosyl-valyl-histidyl-leucyl-threonyl-proryl-glutamic acid) (not fully specified)", "T1 chain": "VHLTPE", "units": {"Dehydrogenase activity (%) with 1 mM αF6P as substrate, relative to oxidase activity of CFP-H38 = 100": "%", "OX/DH (%) relative to CFP-H38 = 100": "%", "Oxidase activity (%) with 1 mM αF6P as substrate, relative to oxidase activity of CFP-H38 = 100": "%", "Dehydrogenase activity (%) with 1 mM αF6P as substrate, relative to oxidase activity of CFP-H40 = 100": "%", "OX/DH (%) relative to CFP-H40 = 100": "%", "Oxidase activity (%) with 1 mM αF6P as substrate, relative to oxidase activity of CFP-H40 = 100": "%"}, "values": [
      {"protein": "B2", "Dehydrogenase activity (%) with 1 mM αF6P as substrate, relative to oxidase activity of CFP-H38 = 100": 8.23, "OX/DH (%) relative to CFP-H38 = 100": 30.7, "OX/DH (ratio of oxidase to dehydrogenase activity, αF6P as substrate)": 3.43, "Oxidase activity (%) with 1 mM αF6P as substrate, relative to oxidase activity of CFP-H38 = 100": 28.3},
      {"protein": "B3", "Dehydrogenase activity (%) with 1 mM αF6P as substrate, relative to oxidase activity of CFP-H40 = 100": 16, "OX/DH (%) relative to CFP-H40 = 100": 21, "OX/DH (ratio of oxidase to dehydrogenase activity, αF6P as substrate)": 1.3, "Oxidase activity (%) with 1 mM αF6P as substrate, relative to oxidase activity of CFP-H40 = 100": 21},
      {"protein": "B1", "Dehydrogenase activity (%) with 1 mM αF6P as substrate, relative to oxidase activity of CFP-H38 = 100": 3.22, "OX/DH (%) relative to CFP-H38 = 100": 2.7, "OX/DH (ratio of oxidase to dehydrogenase activity, αF6P as substrate)": 0.3, "Oxidase activity (%) with 1 mM αF6P as substrate, relative to oxidase activity of CFP-H38 = 100": 1, "dehydrogenase activity of a 38.4 mg/ml CFP-H38-dh3 solution": "38.4 mg/ml (17.8 U/ml) CFP-H38-dh3 solution", "dehydrogenase activity of an 8.8 mg/ml CFP-H38-dh3 solution": "8.8 mg/ml (4.1 U/ml) CFP-H38-dh3 solution"},
      {"protein": "B4", "Dehydrogenase activity (%) with 1 mM αF6P as substrate, relative to oxidase activity of CFP-H40 = 100": 5.4, "OX/DH (%) relative to CFP-H40 = 100": 5.7, "OX/DH (ratio of oxidase to dehydrogenase activity, αF6P as substrate)": 0.35, "Oxidase activity (%) with 1 mM αF6P as substrate, relative to oxidase activity of CFP-H40 = 100": 1.9},
      {"protein": "B5", "Dehydrogenase activity (%) with 1 mM αF6P as substrate, relative to oxidase activity of CFP-H38 = 100": 24, "OX/DH (%) relative to CFP-H38 = 100": 20, "OX/DH (ratio of oxidase to dehydrogenase activity, αF6P as substrate)": 2.23, "Oxidase activity (%) with 1 mM αF6P as substrate, relative to oxidase activity of CFP-H38 = 100": 53.4},
      {"protein": "B6", "Dehydrogenase activity (%) with 1 mM αF6P as substrate, relative to oxidase activity of CFP-H40 = 100": 5.4, "OX/DH (%) relative to CFP-H40 = 100": 23, "OX/DH (ratio of oxidase to dehydrogenase activity, αF6P as substrate)": 1.4, "Oxidase activity (%) with 1 mM αF6P as substrate, relative to oxidase activity of CFP-H40 = 100": 7.5},
      {"protein": "B7", "Dehydrogenase activity (%) with 1 mM αF6P as substrate, relative to oxidase activity of CFP-H40 = 100": 29, "OX/DH (%) relative to CFP-H40 = 100": 7.3, "OX/DH (ratio of oxidase to dehydrogenase activity, αF6P as substrate)": 0.45, "Oxidase activity (%) with 1 mM αF6P as substrate, relative to oxidase activity of CFP-H40 = 100": 13},
      {"protein": "B8", "Dehydrogenase activity (%) with 1 mM αF6P as substrate, relative to oxidase activity of CFP-H40 = 100": 16, "OX/DH (%) relative to CFP-H40 = 100": 100, "OX/DH (ratio of oxidase to dehydrogenase activity, αF6P as substrate)": 6.2, "Oxidase activity (%) with 1 mM αF6P as substrate, relative to oxidase activity of CFP-H40 = 100": 100},
      {"protein": "B9", "Dehydrogenase activity (%) with 1 mM αF6P as substrate, relative to oxidase activity of CFP-H38 = 100": 8.94, "OX/DH (%) relative to CFP-H38 = 100": 100, "OX/DH (ratio of oxidase to dehydrogenase activity, αF6P as substrate)": 11.2, "Oxidase activity (%) with 1 mM αF6P as substrate, relative to oxidase activity of CFP-H38 = 100": 100}
    ]}
  ]
}
